Measured values: publication PMC12930380, “Overcoming Ligand Discovery Challenges: Developing Peptide-Based Tracers for SPSB2” (ACS Chemical Biology, 2025)
Bridge positions count the residues as written; N and C are the ends. Square brackets hold non-standard residues; d marks the D form. Primed or numbered codes have the meaning given here. Ends that are not written are not given here. Peptide text beside a SMILES is read from it. * marks the point of attachment. X1 = O=C(CCC1=[N+]2C(=Cc3ccc(-c4ccc[nH]4)n3[B-]2(F)F)C=C1)*; PEG4′ = tetra(ethylene glycol) spacer; PEG4 = NCCOCCOCCOCCOCCC(=O)O; PEG4″ = not defined here

What was measured:
hSPSB2^SPRY [1] = target: T1, hSPSB2^SPRY (Homo sapiens, UniProt Q99619); test: Differential scanning fluorimetry (thermal shift); type: binding; conditions: DSF, 50 μM peptide, 5 μM His-hSPSB2^SPRY, 30 mM HEPES pH 7.5, 5% DMSO, mean ± SD (n = 4); for Mean Tm: DMSO control 43.2 ± 0.1
T1 construct: Human His6-SPSB2^SPRY (86–219) was expressed as a fusion construct; made in house; host or cells: Escherichia coli BL21(DE3)
T1 sequence (Q99619 26-219 limits assumed): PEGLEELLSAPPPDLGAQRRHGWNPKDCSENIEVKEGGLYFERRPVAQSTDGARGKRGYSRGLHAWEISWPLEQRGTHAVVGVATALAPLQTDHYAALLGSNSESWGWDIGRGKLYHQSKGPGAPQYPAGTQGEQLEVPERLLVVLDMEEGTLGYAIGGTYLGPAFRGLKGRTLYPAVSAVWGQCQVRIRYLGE
Method: For peptide screening, 50 μM peptide was added to 5 μM His-hSPSB2^SPRY diluted in buffer containing 30 mM HEPES pH 7.5, 100 mM NaCl, 1 mM TCEP, 5x SYPRO Orange and 5% DMSO as quadruplicates. Thermal shift analyses were carried out using a QuantStudio 5 Real-Time PCR System (Applied Biosystems) with a temperature gradient ranging from 25 to 95 °C at an increase of 0.05 °C/s. Data analysis was performed by fitting a Boltzmann sigmoidal curve to the raw values using the Protein Thermal Shift software (Applied Biosystems).

hSPSB2^SPRY [2] = target: T1, hSPSB2^SPRY; test: Surface plasmon resonance single cycle kinetics; type: binding; conditions: immobilized His-hSPSB2^SPRY; for SPR binding behaviour (qualitative): no KD determined; for koff / kon: mean ± SD (n = 3); for koff: read-out: SPR koff (dissociation rate constant); for kon: read-out: SPR kon (association rate constant)
Method: Surface Plasmon Resonance experiments were conducted on a Biacore T200 instrument with a Series S Sensor Chip CM5 (Cytiva) and 10 mM HEPES pH 7.5, 150 mM NaCl, 0.5 mM TCEP, 0.05% Tween20 and 2% DMSO for the running buffer. His-hSPSB2^SPRY was diluted to 5 μg/mL in Acetate pH 5.5 and immobilized at 10 μL/min to reach 400–700 RU response levels on Flow-channel (FC) 2–4 for triplicates. Immobilization was performed via standard amine coupling procedure by injecting a mixture of 483 mM EDC and […] for activation with a subsequent injection of 1 M ethanolamine for deactivation. FC1 was used as a reference surface without protein-injection. Kinetic titration experiments were performed using a single-cycle kinetics procedure, with five peptide concentrations (0.8 nM to 1 μM) injected for 150 s each at a flow rate of 30 μL/min, followed by a dissociation phase of 600 s. After each peptide titration, multiple buffer injections were performed to reach a stable baseline. Solvent correction and blank injections were also included. After referencing, blank subtraction, and solvent correction, the data were analyzed using the Biacore T200 evaluation software. Sensorgrams with overlaid fit were replotted using GraphPad Prism version 8.0.1.

HCT116 cells = test: CellTiter-Glo cytotoxicity assay; type: cell-based; conditions: 0.39 μM to 50 μM, 2 h incubation, 37 °C, n = 6
Method: For cytotoxicity measurements, 10 μL HCT116 cells in Dulbecco’s Modified Eagle Medium (DMEM) were seeded at 2*10^5 cells/mL into a white 384-well-flat-bottom plate. […] Ten μL CellTiter-Glo 2.0 Reagent (Promega) was added to each well, followed by an incubation of 10 min at RT. Luminescence was measured, using a PheraSTAR FSX plate reader. Data was normalized to cells treated with 1% DMSO (100% survival control) and digitonin (0% survival control), then plotted using GraphPad Prism version 8.0.1.

[3] = target: Human His6-SPSB2^SPRY (86–219) (human) (UniProt Q99619); test: SPR
[4] = target: Human His6-SPSB2^SPRY (86–219) (human) (UniProt Q99619); test: differential scanning fluorimetry
[5] = target: Human His6-SPSB2^SPRY (86–219) (human) (UniProt Q99619); test: differential scanning fluorimetry; 50 μM peptide added to 5 μM His-hSPSB2^SPRY; 30 mM HEPES pH 7.5, 100 mM NaCl, 1 mM TCEP, 5x SYPRO Orange, 5% DMSO; 25 to 95 °C; quadruplicates
[6] = target: T2, C-terminally Nanoluc-tagged human full length SPSB2 (human, UniProt Q99619 1-263); test: FRET or BRET; NanoBRET displacement in intact HCT116 cells transfected with SPSB2-NanoLuc; 30 nM cyclic TAT tracer, cyclic TAT peptide titrated 6 nM to 50 uM, triplicates; conditions: one partner purified
T2 construct: also called SPRY domain-containing SOCS box protein 2; source: HCT116, transfected, in intact cells; not shown: NanoLuc, C-terminal, kept
T2 sequence (looked up): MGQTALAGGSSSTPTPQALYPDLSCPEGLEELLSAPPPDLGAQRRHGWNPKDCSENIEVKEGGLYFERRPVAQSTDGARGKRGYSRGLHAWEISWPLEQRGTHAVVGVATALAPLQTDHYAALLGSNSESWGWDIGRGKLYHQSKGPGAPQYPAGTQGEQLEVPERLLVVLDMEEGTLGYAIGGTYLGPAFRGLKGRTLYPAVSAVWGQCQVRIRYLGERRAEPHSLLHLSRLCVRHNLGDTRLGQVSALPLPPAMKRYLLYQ

[7] = target: T2, C-terminally Nanoluc-tagged human full …; test: FRET or BRET; NanoBRET displacement in intact HCT116 cells transfected with SPSB2-NanoLuc; 20 nM cyclic TAT tracer, cyclic TAT peptide titrated 6 nM to 50 uM, triplicates (biological replicate); conditions: one partner purified
[8] = target: T3, C-terminally Nanoluc-tagged human full length SPSB2 (human, UniProt Q99619 1-263); test: FRET or BRET; NanoBRET tracer titration, apparent KD; 39 pM - 2.5 μM tracer titrated to intact HCT116 cells transfected with SPSB2-NanoLuc; 2 h at 37 °C; conditions: one partner purified
T3 construct: source: HCT116, transfected (FuGENE HD), in intact or digitonin-permeabilized cells; not shown: NanoLuc, C-terminal, kept
T3 sequence (looked up): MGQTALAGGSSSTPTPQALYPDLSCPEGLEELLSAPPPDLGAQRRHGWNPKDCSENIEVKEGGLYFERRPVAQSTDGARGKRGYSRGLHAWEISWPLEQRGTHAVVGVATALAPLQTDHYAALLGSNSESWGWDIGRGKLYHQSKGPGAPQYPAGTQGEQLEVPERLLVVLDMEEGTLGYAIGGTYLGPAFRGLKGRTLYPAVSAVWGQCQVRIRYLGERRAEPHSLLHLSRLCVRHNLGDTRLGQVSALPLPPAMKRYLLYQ

[9] = target: T3, C-terminally Nanoluc-tagged human full …; test: FRET or BRET; NanoBRET tracer titration, apparent KD; 39 pM - 2.5 μM tracer titrated to HCT116 cells transfected with SPSB2-NanoLuc and permeabilized with 25 μM digitonin; conditions: one partner purified

**Q.** `CC[C@H](C)[C@H](NC(=O)[C@H](CC(=O)O)NC(=O)[C@@H](NC(=O)CNC(=O)[C@H](CO)NC(=O)CNC(=O)[C@@H]1CSSC[C@H](NC(=O)CCOCCOCCOCCOCCN)C(=O)N[C@@H](Cc2ccc(O)cc2)C(=O)NCC(=O)N[C@@H](CCCNC(=N)N)C(=O)N[C@@H](CCCCN)C(=O)N[C@@H](CCCCN)C(=O)N[C@@H](CCCNC(=N)N)C(=O)N[C@@H](CCCNC(=N)N)C(=O)N[C@@H](CCC(N)=O)C(=O)N[C@@H](CCCNC(=N)N)C(=O)N[C@@H](CCCNC(=N)N)C(=O)N[C@@H](CCCNC(=N)N)C(=O)N1)C(C)C)C(=O)N[C@@H](CC(N)=O)C(=O)N[C@@H](CC(N)=O)C(=O)N[C@@H](CC(N)=O)C(=O)O` [Cyclic TAT peptide] (H-[PEG4]CYGRKKRRQRRRCGSGVDINNN-OH; disulfide 2-14; N-terminus and C-terminus assumed) was tested. Which ΔTm at 50 µM (hSPSB2^SPRY [1]) did it give?
**A.** 8.1 ± 0.1 °C

**Q.** And the “Mean Tm” value (hSPSB2^SPRY [1])?
**A.** 51.4 ± 0.1 °C

**Q.** And the “SPR binding behaviour (qualitative)” value (hSPSB2^SPRY [2])?
**A.** non 1:1 binding interaction

**Q.** And the “Impact on cell viability (CellTiter-Glo, qualitative)” value (HCT116 cells)?
**A.** no impact on cell viability at any tested concentration

**Q.** For `CC[C@H](C)[C@H](NC(=O)[C@H](CC(=O)O)NC(=O)[C@@H](NC(=O)CNC(=O)[C@H](CO)NC(=O)CNC(=O)[C@@H]1CSSC[C@H](NC(=O)CCOCCOCCOCCOCCNC(=O)CCC2=[N+]3C(=Cc4ccc(-c5ccc[nH]5)n4[B-]3(F)F)C=C2)C(=O)N[C@@H](Cc2ccc(O)cc2)C(=O)NCC(=O)N[C@@H](CCCNC(=N)N)C(=O)N[C@@H](CCCCN)C(=O)N[C@@H](CCCCN)C(=O)N[C@@H](CCCNC(=N)N)C(=O)N[C@@H](CCCNC(=N)N)C(=O)N[C@@H](CCC(N)=O)C(=O)N[C@@H](CCCNC(=N)N)C(=O)N[C@@H](CCCNC(=N)N)C(=O)N[C@@H](CCCNC(=N)N)C(=O)N1)C(C)C)C(=O)N[C@@H](CC(N)=O)C(=O)N[C@@H](CC(N)=O)C(=O)N[C@@H](CC(N)=O)C(=O)O` [Cyclic TAT tracer] ({X1-PEG4}-CYGRKKRRQRRRCGSGVDINNN-OH; disulfide 1-13), which “Concentration leading to reduced cell survival (CellTiter-Glo)” value (HCT116 cells) is on record?
**A.** above 10 μM

**Q.** Which results are given for `CC[C@H](C)[C@H](NC(=O)[C@H](CC(=O)O)NC(=O)[C@@H](NC(=O)CNC(=O)[C@H](CO)NC(=O)CNC(=O)[C@H](CC(=O)O)NC(=O)CNC(=O)[C@H](CCCNC(=N)N)NC(=O)CCOCCOCCOCCOCCN)C(C)C)C(=O)N[C@@H](CC(N)=O)C(=O)N[C@@H](CC(N)=O)C(=O)N[C@@H](CC(N)=O)C(=O)O` [Linear RGD peptide] (H-[PEG4]RGDGSGVDINNN-OH; N-terminus and C-terminus assumed)?
**A.** ΔTm at 50 µM (hSPSB2^SPRY [1]): 10.9 ± 0.2 °C; Mean Tm (hSPSB2^SPRY [1]): 54.1 ± 0.2 °C; koff (hSPSB2^SPRY [2]): 0.032 s⁻¹; kon (hSPSB2^SPRY [2]): 200000 M⁻¹ s⁻¹

**Q.** Which results are given for `CC[C@H](C)[C@H](NC(=O)[C@H](CC(=O)O)NC(=O)[C@H](CCCCN)NC(=O)[C@H](CCC(=O)O)NC(=O)[C@H](CCC(=O)O)NC(=O)[C@@H](N)CCCCN)C(=O)N[C@@H](CC(N)=O)C(=O)N[C@@H](CC(N)=O)C(=O)N[C@@H](CC(N)=O)C(=O)N[C@H](C(=O)N[C@@H](CCCCN)C(=O)N[C@@H](CCCCN)C(=O)N[C@H](C(=O)O)[C@@H](C)O)C(C)C` [iNOS peptide, reference compound] (H-KEEKDINNNVKKT-OH)?
**A.** ΔTm at 50 µM (hSPSB2^SPRY [1]): 14.1 ± 0.1 °C; koff (hSPSB2^SPRY [2]): 0.0024 s⁻¹; kon (hSPSB2^SPRY [2]): 2.9e+06 M⁻¹ s⁻¹

**Q.** With “PEG4-YGRKKRRQRRRGSGVDINNN [Linear TAT peptide]” as the molecule, how does the ΔTm (hSPSB2^SPRY [1]) read?
**A.** 10.6 ± 0.1 °C

**Q.** And the “Mean Tm” value (hSPSB2^SPRY [1])?
**A.** 53.8 ± 0.1 °C

**Q.** What about the “SPR binding behaviour (qualitative)” value (hSPSB2^SPRY [2]) of the same molecule?
**A.** non 1:1 binding interaction

**Q.** How did the Kd [3] turn out when KEEKDINNNVKKT [iNOS peptide] was run?
**A.** 0.8 nM

**Q.** And the koff [3]?
**A.** 0.0024 s⁻¹

**Q.** What about the kon [3] of the same molecule?
**A.** 2.9e+06 M⁻¹ s⁻¹

**Q.** What about the ΔTm [4] of the same molecule?
**A.** 14.1 °C

**Q.** With [PEG4′]RGDGSGVDINNN [linear RGD peptide] as the molecule, how does the Kd [3] read?
**A.** 162 nM

**Q.** What about the koff [3] of the same molecule?
**A.** 0.032 s⁻¹

**Q.** And the kon [3]?
**A.** 200000 M⁻¹ s⁻¹

**Q.** And the ΔTm [4]?
**A.** 10.9 °C

**Q.** [PEG4′]YGRKKRRQRRRGSGVDINNN [linear TAT peptide] was tested. Which ΔTm [5] did it give?
**A.** 10.6 °C

**Q.** For [PEG4′]CYGRKKRRQRRRCGSGVDINNN (disulfide 2-14) [cyclic TAT peptide], which ΔTm [5] is on record?
**A.** 8.1 °C

B1: cyclic TAT peptide (PEG4-CYGRKKRRQRRRCGSGVDINNN) (peptide)
peptide: [PEG4′]CYGRKKRRQRRRCGSGVDINNN
modifications: disulfide 2-14
notes: also called cyclic TAT peptide variant; source: synthetic peptide (custom synthesized by Synpel Chemical, GeneCust and GenScript Biotech)
**Q.** What does the source list for B1?
**A.** EC50 [6]: ~386 nM; EC50 [7]: ~200 nM

B2: Cyclic TAT tracer (peptide)
peptide: {BODIPY 576/589-PEG4″}-CYGRKKRRQRRRCGSGVDINNN
modifications: disulfide 1-13
notes: also called fluorophore-tagged cyclic TAT tracer; source: synthetic peptide (custom synthesized by Synpel Chemical, GeneCust and GenScript Biotech)
**Q.** For B2, which Kd [8] is on record?
**A.** 86 nM

**Q.** And the Kd [9]?
**A.** 346 nM
